Results published in patent publication EP1832653A1.

Target: monoclonal antibody M75 (MAb M75), secreted from the hybridoma VU-M75, ATCC HB 11128
Assay: competition ELISA: peptide in solution against immobilized GST-MN for M75

Binder: GGSSGEDDPLGEEDLPSEEDSP [oligopeptide … (aa 51-72) [SEQ ID NO: 104]]
- IC50: 1 ng/mL
